Biological target: T1, Soluble human α-Klotho ectodomain (αKlotho^ecto) (human, UniProt Q9UEF7 34-981)
T1 construct: also called wild-type αKlotho^ecto; soluble αKlotho
T1 sequence: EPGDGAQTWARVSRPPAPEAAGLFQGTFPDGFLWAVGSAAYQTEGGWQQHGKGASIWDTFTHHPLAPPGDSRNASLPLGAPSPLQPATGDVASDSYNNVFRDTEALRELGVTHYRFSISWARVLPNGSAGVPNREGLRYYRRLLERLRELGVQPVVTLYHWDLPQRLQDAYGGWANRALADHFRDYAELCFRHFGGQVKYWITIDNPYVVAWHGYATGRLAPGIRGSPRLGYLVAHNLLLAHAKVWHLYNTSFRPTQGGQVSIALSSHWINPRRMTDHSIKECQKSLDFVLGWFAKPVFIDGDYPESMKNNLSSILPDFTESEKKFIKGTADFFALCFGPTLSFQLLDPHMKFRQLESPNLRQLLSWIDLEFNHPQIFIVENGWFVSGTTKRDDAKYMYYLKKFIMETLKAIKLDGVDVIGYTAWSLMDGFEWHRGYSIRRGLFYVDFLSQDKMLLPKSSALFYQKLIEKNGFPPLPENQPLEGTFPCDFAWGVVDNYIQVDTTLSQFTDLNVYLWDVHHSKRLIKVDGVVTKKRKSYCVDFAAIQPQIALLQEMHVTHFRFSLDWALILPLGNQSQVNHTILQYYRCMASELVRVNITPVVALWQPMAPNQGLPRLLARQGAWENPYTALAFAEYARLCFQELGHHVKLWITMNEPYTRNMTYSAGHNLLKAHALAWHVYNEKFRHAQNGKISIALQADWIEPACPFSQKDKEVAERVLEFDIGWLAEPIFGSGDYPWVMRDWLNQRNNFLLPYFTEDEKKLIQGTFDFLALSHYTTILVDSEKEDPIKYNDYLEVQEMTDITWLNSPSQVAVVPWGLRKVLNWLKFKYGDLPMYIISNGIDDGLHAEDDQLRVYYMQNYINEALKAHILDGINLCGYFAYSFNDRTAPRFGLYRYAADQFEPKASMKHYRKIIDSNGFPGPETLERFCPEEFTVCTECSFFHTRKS
Assay: size-exclusion chromatography of the mixture, with Coomassie-stained SDS-PAGE of the eluted peak fractions [left]

binding result: binds
B1: FGF23^WT (human FGF23 Y25 to S205 with R176Q/R179Q, protease-resistant minimal protein) (ligand)
chain: YPNASPLLGSSWGGLIHLYTATARNSYHLQIHKNGHVDGAPHQTIYSALMIRSEDAGFVVITGVMSRRYLCMDFRGNIFGSHYFDPENCRFQHQTLENGYDVYHSPQYHFLVSLGRAKRAFLPGMNPPPYSQFLSRRNEIPLIHFNTPIPRQHTQSAEDDSERDPLNVLKPRARMTPAPAS
notes: also called wild-type FGF23; minimal FGF23
